Data published in IntAct's records for PubMed 21358628.

B1: DNA-directed RNA polymerase III subunit RPC3 (Homo sapiens), Q9BUI4 (parent)
chain: MTQAEIKLCSLLLQEHFGEIVEKIGVHLIRTGSQPLRVIAHDTGTSLDQVKKALCVLVQHNLVSYQVHKRGVVEYEAQCSRVLRMLRYPRYIYTTKTLYSDTGELIVEELLLNGKLTMSAVVKKVADRLTETMEDGKTMDYAEVSNTFVRLADTHFVQRCPSVPTTENSDPGPPPPAPTLVINEKDMYLVPKLSLIGKGKRRRSSDEDAAGEPKAKRPKYTTDNKEPIPDDGIYWQANLDRFHQHFRDQAIVSAVANRMDQTSSEIVRTMLRMSEITTSSSAPFTQPLSSNEIFRSLPVGYNISKQVLDQYLTLLADDPLEFVGKSGDSGGGMYVINLHKALASLATATLESVVQERFGSRCARIFRLVLQKKHIEQKQVEDFAMIPAKEAKDMLYKMLSENFMSLQEIPKTPDHAPSRTFYLYTVNILSAARMLLHRCYKSIANLIERRQFETKENKRLLEKSQRVEAIIASMQATGAEEAQLQEIEEMITAPERQQLETLKRNVNKLDASEIQVDETIFLLESYIECTMKRQ
partner: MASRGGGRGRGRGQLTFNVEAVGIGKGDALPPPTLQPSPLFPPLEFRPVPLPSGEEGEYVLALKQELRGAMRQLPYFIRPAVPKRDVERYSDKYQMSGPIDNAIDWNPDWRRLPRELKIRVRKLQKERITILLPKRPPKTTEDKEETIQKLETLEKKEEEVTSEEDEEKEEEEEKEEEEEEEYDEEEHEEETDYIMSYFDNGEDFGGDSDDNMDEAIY
B2: DNA-directed RNA polymerase III subunit RPC3 (Homo sapiens), Q9BUI4 (parent)
chain: B1 chain

Variants of: B1
Settings: with rpc7l_human POLR3GL

effect of a mutation on the interaction | Variant
disrupting interaction | MTQAEIKLCSLLLQEHFGEIVEKIGVHLIRTGSQPLRVIAHDTGTSLDQVKKALCVLVQHNLVSYQVHKRGVVEYEAQCSRVLRMLRYPRYIYTTKTLYSDTGELIVEELLLNGKLTMSAVVKKVADRLTETMEDGKTMDYAEVSNTFVRLADTHFVQRCPSVPTTENSDPGPPPPAPTLVINEKDMYLVPKLSLIGKGKRRRSSDEDAAGEPKAKRPKYTTDNKEPIPDDGIYWQANLDRFHQHFRDQAIVSAVANRMDQTSSEIVRTMLRMSEITTSSSAPFTQPLSSNEIFRSLPVGYNISKQVLDQYKTLLADDPLEFVGKSGDSGGGMYVINLHKALASLATATLESVVQERFGSRCARIFRLVLQKKHIEQKQVEDFAMIPAKEAKDMLYKMLSENFMSLQEIPKTPDHAPSRTFYLYTVNILSAARMLLHRCYKSIANLIERRQFETKENKRLLEKSQRVEAIIASMQATGAEEAQLQEIEEMITAPERQQLETLKRNVNKLDASEIQVDETIFLLESYIECTMKRQ [L312K]

Variants of: B2
Settings: with rpc7_human POLR3G

effect of a mutation on the interaction | Variant
disrupting interaction | MTQAEIKLCSLLLQEHFGEIVEKIGVHLIRTGSQPLRVIAHDTGTSLDQVKKALCVLVQHNLVSYQVHKRGVVEYEAQCSRVLRMLRYPRYIYTTKTLYSDTGELIVEELLLNGKLTMSAVVKKVADRLTETMEDGKTMDYAEVSNTFVRLADTHFVQRCPSVPTTENSDPGPPPPAPTLVINEKDMYLVPKLSLIGKGKRRRSSDEDAAGEPKAKRPKYTTDNKEPIPDDGIYWQANLDRFHQHFRDQAIVSAVANRMDQTSSEIVRTMLRMSEITTSSSAPFTQPLSSNEIFRSLPVGYNISKQVLDQYKTLLADDPLEFVGKSGDSGGGMYVINLHKALASLATATLESVVQERFGSRCARIFRLVLQKKHIEQKQVEDFAMIPAKEAKDMLYKMLSENFMSLQEIPKTPDHAPSRTFYLYTVNILSAARMLLHRCYKSIANLIERRQFETKENKRLLEKSQRVEAIIASMQATGAEEAQLQEIEEMITAPERQQLETLKRNVNKLDASEIQVDETIFLLESYIECTMKRQ [L312K]
